This passage reports IC50 and EC50 results from patent WO2022068891A1 (dated 2022).

Assay [1] addresses T1, Biotinylated PD-1-huIgG1 Fc (Kactus Biosystems) (UniProt Q15116 25-167, limits assumed, biotinylated (site not given)).
T1 construct: the whole entry is named
Description: neutralisation ELISA: PD-L1-huIgG1 Fc coated, antibody titrated against biotinylated PD-1-huIgG1 Fc. For orientation: An ELISA detects its analyte on a solid surface through an enzyme-linked reagent.

Assay [2] concerns the target T2, PD-1 Protein, Human, Recombinant (His Tag) (Beijing Yiqiao Shenzhou / Sino Biological) (human, UniProt Q15116 25-167).
T2 construct: Bought reagent; the whole entry is named
Description: binding ELISA: human PD-1 His tag protein coated at 0.5 ug/ml, antibody in two-fold dilutions from 10 ug/ml.

T1 sequence (Q15116 25-167 limits assumed): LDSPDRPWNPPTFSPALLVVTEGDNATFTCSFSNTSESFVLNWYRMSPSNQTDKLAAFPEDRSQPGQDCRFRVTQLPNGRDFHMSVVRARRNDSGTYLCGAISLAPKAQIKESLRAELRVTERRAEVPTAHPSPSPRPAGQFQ
T2 sequence (Q15116 25-167 limits assumed): as above

B1: 6H6 hIgG1 form antibody (antibody, V domains shown)
VH: EVKLVESGGGLVKPGGSLKLSCAASGFTFSSYGMSWVRQTPEKRLEWVATISGGGRYTYYPDSVKGRFTISRDNAKNNLYLQMSSLRSEDTALYYCASIYDGYYFDYWGHGTTLTVSS
VL: DIVITQSPATLSVTPGDSVSLSCRASQSISNNLHWYQKKSHESPRLLIKYASQSISGIPSRFSGSGSGTDFTLSINSVETEDFGMYFCQQSNSWPLTFGAGTKLELK
notes: also called 6H6 antibody; 6H6 huIgG1 antibody
The molecule B1 gave an IC50 in assay [1] of 3.6 µg/mL. For the same molecule, the half-maximal effective concentration (EC50) in assay [2] was 0.0172 µg/mL.

As a reminder, the IC50 is the concentration that gives 50% inhibition. One may read the EC50 as the midpoint of the concentration-response curve.
